Numbering of substitutions follows the chain as printed. Names may count otherwise.
B1: OXCMe (Methylorubrum extorquens AM1) (protein)
chain: MTVQAQNIDAITAGAMPHEEPELTDGFHLVIDALKLNGIETIYNVPGIPITDLGRLAQAEGLRVISFRHEQNAGNAAAIAGFLTKKPGICLTVSAPGFLNGLTALANATTNCFPMILISGSSEREIVDLQQGDYEEMDQLAIAKPLCKAAFRVLHAADIGIGVARAIRAAVSGRPGGVYLDLPAKLFSQVIDADLGARSLVKVIDAAPAQLPAPAAIARALDVLKSAERPLIILGKGAAYAQADEAVRALVEESGIPYVPMSMAKGLLPDTHPLSAGAARSTALKDSDVVLLVGARLNWLLSHGKGKTWGEPGSKRFIQIDIEPREMDSNVEIVAPVVGDIGSCVEALLDGIRKDWKGAPSNWLETLRGKREANIAKMAPKLMKNSSPMCFHSALGALRTVIKERPDAILVNEGANTLDLARGIIDMYQPRKRLDVGTWGVMGIGMGFAVAAAVETGKPVLAVEGDSAFGFSGMEVETICRYELPVCIVIFNNNGIYRGTDTDPTGRDPGTTVFVKNSRYDKMMEAFGGVGVNVTTPDELKRAVDEAMNSGKPTLINAEIDPAAGSESGNIGSLNPQSTLKKK
B2: OXCMe (Methylorubrum extorquens AM1; S568A/Y497A) (protein)
chain: B1 chain with Y497A, S568A
B3: OXCMe (Methylorubrum extorquens AM1; S568A) (protein)
chain: B1 chain with S568A
B4: OXCMe (Methylorubrum extorquens AM1; Y497A) (protein)
chain: B1 chain with Y497A

Legend:
YciA = molecular target: T1, YciA (Escherichia coli, UniProt P0A8Z0); test: thioesterase activity assay; type: biochemical; conditions: racemic mandelyl-CoA 0.5 mM, YciA 2 μM
T1 sequence (P0A8Z0 1-132): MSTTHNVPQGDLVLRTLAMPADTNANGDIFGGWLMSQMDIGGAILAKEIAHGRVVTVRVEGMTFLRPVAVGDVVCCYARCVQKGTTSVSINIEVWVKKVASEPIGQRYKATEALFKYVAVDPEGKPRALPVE

HACLHs = HACLHs (Homo sapiens, UniProt Q9UJ83); test: carboligation, LC-MS product analysis after […] h; type: biochemical; conditions: formyl-CoA 1 mM as C1 donor, aldehyde 10 mM, enzyme 5 μM
purified protein = substrate: CC(C)(COP(=O)(O)OP(=O)(O)OC[C@H]1O[C@@H](n2cnc3c(N)ncnc32)[C@H](O)[C@@H]1OP(=O)(O)O)[C@@H](O)C(=O)NCCC(=O)NCCSC(=O)C(=O)O; test: purified protein; conditions: decarboxylation to formyl-CoA; ThDP-dependent

HACLHs, sequence (Q9UJ83 whole entry): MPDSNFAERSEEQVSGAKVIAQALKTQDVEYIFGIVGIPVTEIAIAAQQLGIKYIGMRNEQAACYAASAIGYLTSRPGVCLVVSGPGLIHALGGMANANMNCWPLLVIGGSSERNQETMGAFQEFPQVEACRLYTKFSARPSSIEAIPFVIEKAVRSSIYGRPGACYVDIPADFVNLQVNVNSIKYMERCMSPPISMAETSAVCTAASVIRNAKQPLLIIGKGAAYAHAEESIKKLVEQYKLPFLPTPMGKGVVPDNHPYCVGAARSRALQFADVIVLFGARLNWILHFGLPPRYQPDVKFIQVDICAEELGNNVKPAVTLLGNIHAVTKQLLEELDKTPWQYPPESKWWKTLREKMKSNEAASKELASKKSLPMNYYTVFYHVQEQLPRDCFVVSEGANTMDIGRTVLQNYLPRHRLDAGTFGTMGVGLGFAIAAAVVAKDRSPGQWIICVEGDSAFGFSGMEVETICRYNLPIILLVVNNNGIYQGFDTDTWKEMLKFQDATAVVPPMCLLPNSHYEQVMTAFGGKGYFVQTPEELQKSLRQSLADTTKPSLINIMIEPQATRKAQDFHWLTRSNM

Molecule | thioesterase activity assay (YciA) | carboligation, LC-MS product analysis after 1 h (HACLHs) | Km (purified protein) [µM] | kcat (purified protein) [s⁻¹] | kcat/Km (purified protein) [M⁻¹ s⁻¹]
CC(C)(COP(=O)(O)OP(=O)(O)OC[C@H]1O[C@@H](n2cnc3c(N)ncnc32)[C@H](O)[C@@H]1OP(=O)(O)O)[C@@H](O)C(=O)NCCC(=O)NCCSC(=O)C(O)c1ccccc1 (stereo partly drawn) [mandelyl‐CoA] | YciA showed relatively high mandelyl‐CoA thioesterase activity |  |  |  | 
CC(C)(COP(=O)(O)OP(=O)(O)OC[C@H]1O[C@@H](n2cnc3c(N)ncnc32)[C@H](O)[C@@H]1OP(=O)(O)O)[C@@H](O)C(=O)NCCC(=O)NCCSC=O [formyl‐CoA] |  | HACLHs and OXCMe are able to perform nucleophilic C1‐extension reactions of different aldehydes with formyl‐CoA |  |  | 
B1 |  |  | 105 ± 11 | 98 ± 3 | 930000
B2 |  |  | 103 ± 15 | 0.32 ± 0.01 | 3100
B3 |  |  | 23 ± 2 |  | 
B4 |  |  | 180 ± 17 | 1.32 ± 0.04 | 7300

Source: article PMC7154664 (Angewandte Chemie (International Ed. in English), 2020)
